Test results taken from article PMC8298264, “Function of cofactor Akirin2 in the regulation of gene expression in model human neutrophil-like HL60 cells” (Bioscience Reports, 2021).

System: human HL60 cells
Assay: SWATH-MS proteomics, differential protein representation, akirin2 KO vs WT HL60 cells
Assay type: cell-based
Settings: akirin2 KO vs WT HL60 cells; sheet "Under-represented in KO"
Outline: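 Read-out is label-free SWATH-MS protein area, globally normalized to total detected-protein area, with identifications held at 1% FDR against a library from information-dependent acquisition.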

B1: sp¦O60306¦AQR_HUMAN (protein, UniProt O60306 1-1485, looked up)
RNA helicase aquarius: MAAPAQPKKIVAPTVSQINAEFVTQLACKYWAPHIKKKSPFDIKVIEDIYEKEIVKSRFAIRKIMLLEFSQYLENYLWMNYSPEVSSKAYLMSICCMVNEKFRENVPAWEIFKKKPDHFPFFFKHILKAALAETDGEFSLHEQTVLLLFLDHCFNSLEVDLIRSQVQQLISLPMWMGLQLARLELELKKTPKLRKFWNLIKKNDEKMDPEAREQAYQERRFLSQLIQKFISVLKSVPLSEPVTMDKVHYCERFIELMIDLEALLPTRRWFNTILDDSHLLVHCYLSNLVRREEDGHLFSQLLDMLKFYTGFEINDQTGNALTENEMTTIHYDRITSLQRAAFAHFPELYDFALSNVAEVDTRESLVKFFGPLSSNTLHQVASYLCLLPTLPKNEDTTFDKEFLLELLVSRHERRISQIQQLNQMPLYPTEKIIWDENIVPTEYYSGEGCLALPKLNLQFLTLHDYLLRNFNLFRLESTYEIRQDIEDSVSRMKPWQSEYGGVVFGGWARMAQPIVAFTVVEVAKPNIGENWPTRVRADVTINLNVRDHIKDEWEGLRKHDVCFLITVRPTKPYGTKFDRRRPFIEQVGLVYVRGCEIQGMLDDKGRVIEDGPEPRPNLRGESRTFRVFLDPNQYQQDMTNTIQNGAEDVYETFNIIMRRKPKENNFKAVLETIRNLMNTDCVVPDWLHDIILGYGDPSSAHYSKMPNQIATLDFNDTFLSIEHLKASFPGHNVKVTVEDPALQIPPFRITFPVRSGKGKKRKDADVEDEDTEEAKTLIVEPHVIPNRGPYPYNQPKRNTIQFTHTQIEAIRAGMQPGLTMVVGPPGTGKTDVAVQIISNIYHNFPEQRTLIVTHSNQALNQLFEKIMALDIDERHLLRLGHGEEELETEKDFSRYGRVNYVLARRIELLEEVKRLQKSLGVPGDASYTCETAGYFFLYQVMSRWEEYISKVKNKGSTLPDVTEVSTFFPFHEYFANAPQPIFKGRSYEEDMEIAEGCFRHIKKIFTQLEEFRASELLRSGLDRSKYLLVKEAKIIAMTCTHAALKRHDLVKLGFKYDNILMEEAAQILEIETFIPLLLQNPQDGFSRLKRWIMIGDHHQLPPVIKNMAFQKYSNMEQSLFTRFVRVGVPTVDLDAQGRARASLCNLYNWRYKNLGNLPHVQLLPEFSTANAGLLYDFQLINVEDFQGVGESEPNPYFYQNLGEAEYVVALFMYMCLLGYPADKISILTTYNGQKHLIRDIINRRCGNNPLIGRPNKVTTVDRFQGQQNDYILLSLVRTRAVGHLRDVRRLVVAMSRARLGLYIFARVSLFQNCFELTPAFSQLTARPLHLHIIPTEPFPTTRKNGERPSHEVQIIKNMPQMANFVYNMYMHLIQTTHHYHQTLLQLPPAMVEEGEEVQNQETELETEEEAMTVQADIIPSPTDTSCRQETPAFQTDTTPSETGATSTPEAIPALSETTPTVVGAVSAPAEANTPQDATSAPEETK
For B1, the “Fold Change” value was 0.6822 and the “Log (Fold Change)” value was -0.1661.

B2: sp¦P34897¦GLYM_HUMAN (protein, UniProt P34897 30-504, looked up)
Serine …: NAAQTQTGEANRGWTGQESLSDSDPEMWELLQREKDRQCRGLELIASENFCSRAALEALGSCLNNKYSEGYPGKRYYGGAEVVDEIELLCQRRALEAFDLDPAQWGVNVQPYSGSPANLAVYTALLQPHDRIMGLDLPDGGHLTHGYMSDVKRISATSIFFESMPYKLNPKTGLIDYNQLALTARLFRPRLIIAGTSAYARLIDYARMREVCDEVKAHLLADMAHISGLVAAKVIPSPFKHADIVTTTTHKTLRGARSGLIFYRKGVKAVDPKTGREIPYTFEDRINFAVFPSLQGGPHNHAIAAVAVALKQACTPMFREYSLQVLKNARAMADALLERGYSLVSGGTDNHLVLVDLRPKGLDGARAERVLELVSITANKNTCPGDRSAITPGGLRLGAPALTSRQFREDDFRRVVDFIDEGVNIGLEVKSKTAKLQDFKSFLLKDSETSQRLANLRQRVEQFARAFPMPGFDEH
B2 was tested, and the “Fold Change” value was 0.6722 and the “Log (Fold Change)” value was -0.1725.

B3: sp¦Q86Y56¦DAAF5_HUMAN (protein, UniProt Q86Y56 2-855, looked up)
Dynein axonemal assembly …: AALGVAEAVAAPHPAEGAETAEAVELSRALSRLLPGLEADSKPGRRRALEALRRALEEPGPAADPTAFQGPWARLLLPRLLRCLSDPAEGCRALAVHLLDLGLRRAARPRDALPRLLPALAARLAGPVPARRPPEACEELRLALVQLLGLAVDLCGAALAPHLDDALRALRCSLLDPFAAVRRESCSCAAALAQATPDHFHMQSESLIGPLMQTISHQHWKVRVAAIEATGAVIHFGNGKSVDDVLSHFAQRLFDDVPQVRRAVASVVGGWLLCLRDRYSFFHKLIPLLLSSLNDEVPEVRQLAASLWEDVGLQWQKENEEDLKDKLDFAPPTPPHYPPHERRPVLGCRELVFRNLSKILPALCHDITDWVVGTRVKSAQLLPVLLLHAEDHATQHLEVVLRTLFQACTDEEAAVVQSCTRSAELVGTFVSPEVFLKLILSTLKKTPSASGLLVLASAMRGCPREALQPHLAAIATELAQAHICQASENDLYLERLLLCVQALVSVCHEDCGVASLQLLDVLLTIVALAGATGLRDKAQETMDSLAMVEGVSSCQDLYRKHIGPLLERVTASHLDWTAHSPELLQFSVIVAQSGPALGEALPHVVPTLRACLQPSQDPQMRLKLFSILSTVLLRATDTINSQGQFPSYLETVTKDILAPNLQWHAGRTAAAIRTAAVSCLWALTSSEVLSAEQIRDVQETLMPQVLTTLEEDSKMTRLISCRIINTFLKTSGGMTDPEKLIRIYPELLKRLDDVSNDVRMAAASTLVTWLQCVKGANAKSYYQSSVQYLYRELLVHLDDPERAIQDAILEVLKEGSGLFPDLLVRETEAVIHKHRSATYCEQLLQHVQAVPATQ
In the case of B3, the “Fold Change” value is reported as 0.3018 and the “Log (Fold Change)” value is reported as -0.5202.

B4: sp¦Q04837¦SSBP_HUMAN (protein, UniProt Q04837 17-148, looked up)
Single-stranded DNA-binding …: ESETTTSLVLERSLNRVHLLGRVGQDPVLRQVEGKNPVTIFSLATNEMWRSGDSEVYQLGDVSQKTTWHRISVFRPGLRDVAYQYVKKGSRIYLEGKIDYGEYMDKNNVRRQATTIIADNIIFLSDQTKEKE
In the case of B4, the “Fold Change” value is reported as 0.6781 and the “Log (Fold Change)” value is reported as -0.1687.

B5: sp¦B0I1T2¦MYO1G_HUMAN (protein, UniProt B0I1T2 1-1018, looked up)
Unconventional myosin-Ig: MEDEEGPEYGKPDFVLLDQVTMEDFMRNLQLRFEKGRIYTYIGEVLVSVNPYQELPLYGPEAIARYQGRELYERPPHLYAVANAAYKAMKHRSRDTCIVISGESGAGKTEASKHIMQYIAAVTNPSQRAEVERVKDVLLKSTCVLEAFGNARTNRNHNSSRFGKYMDINFDFKGDPIGGHIHSYLLEKSRVLKQHVGERNFHAFYQLLRGSEDKQLHELHLERNPAVYNFTHQGAGLNMTVHSALDSDEQSHQAVTEAMRVIGFSPEEVESVHRILAAILHLGNIEFVETEEGGLQKEGLAVAEEALVDHVAELTATPRDLVLRSLLARTVASGGRELIEKGHTAAEASYARDACAKAVYQRLFEWVVNRINSVMEPRGRDPRRDGKDTVIGVLDIYGFEVFPVNSFEQFCINYCNEKLQQLFIQLILKQEQEEYEREGITWQSVEYFNNATIVDLVERPHRGILAVLDEACSSAGTITDRIFLQTLDMHHRHHLHYTSRQLCPTDKTMEFGRDFRIKHYAGDVTYSVEGFIDKNRDFLFQDFKRLLYNSTDPTLRAMWPDGQQDITEVTKRPLTAGTLFKNSMVALVENLASKEPFYVRCIKPNEDKVAGKLDENHCRHQVAYLGLLENVRVRRAGFASRQPYSRFLLRYKMTCEYTWPNHLLGSDKAAVSALLEQHGLQGDVAFGHSKLFIRSPRTLVTLEQSRARLIPIIVLLLQKAWRGTLARWRCRRLRAIYTIMRWFRRHKVRAHLAELQRRFQAARQPPLYGRDLVWPLPPAVLQPFQDTCHALFCRWRARQLVKNIPPSDMPQIKAKVAAMGALQGLRQDWGCRRAWARDYLSSATDNPTASSLFAQRLKTLQDKDGFGAVLFSSHVRKVNRFHKIRNRALLLTDQHLYKLDPDRQYRVMRAVPLEAVTGLSVTSGGDQLVVLHARGQDDLVVCLHRSRPPLDNRVGELVGVLAAHCQGEGRTLEVRVSDCIPLSHRGVRRLISVEPRPEQPEPDFRCARGSFTLLWPSR
For B5, the “Fold Change” value was 0.6785 and the “Log (Fold Change)” value was -0.1685.

B6: sp¦Q9UIG0¦BAZ1B_HUMAN (protein, UniProt Q9UIG0 1-1483, looked up)
Tyrosine-protein kinase BAZ1B: MAPLLGRKPFPLVKPLPGEEPLFTIPHTQEAFRTREEYEARLERYSERIWTCKSTGSSQLTHKEAWEEEQEVAELLKEEFPAWYEKLVLEMVHHNTASLEKLVDTAWLEIMTKYAVGEECDFEVGKEKMLKVKIVKIHPLEKVDEEATEKKSDGACDSPSSDKENSSQIAQDHQKKETVVKEDEGRRESINDRARRSPRKLPTSLKKGERKWAPPKFLPHKYDVKLQNEDKIISNVPADSLIRTERPPNKEIVRYFIRHNALRAGTGENAPWVVEDELVKKYSLPSKFSDFLLDPYKYMTLNPSTKRKNTGSPDRKPSKKSKTDNSSLSSPLNPKLWCHVHLKKSLSGSPLKVKNSKNSKSPEEHLEEMMKMMSPNKLHTNFHIPKKGPPAKKPGKHSDKPLKAKGRSKGILNGQKSTGNSKSPKKGLKTPKTKMKQMTLLDMAKGTQKMTRAPRNSGGTPRTSSKPHKHLPPAALHLIAYYKENKDREDKRSALSCVISKTARLLSSEDRARLPEELRSLVQKRYELLEHKKRWASMSEEQRKEYLKKKREELKKKLKEKAKERREKEMLERLEKQKRYEDQELTGKNLPAFRLVDTPEGLPNTLFGDVAMVVEFLSCYSGLLLPDAQYPITAVSLMEALSADKGGFLYLNRVLVILLQTLLQDEIAEDYGELGMKLSEIPLTLHSVSELVRLCLRRSDVQEESEGSDTDDNKDSAAFEDNEVQDEFLEKLETSEFFELTSEEKLQILTALCHRILMTYSVQDHMETRQQMSAELWKERLAVLKEENDKKRAEKQKRKEMEAKNKENGKVENGLGKTDRKKEIVKFEPQVDTEAEDMISAVKSRRLLAIQAKKEREIQEREMKVKLERQAEEERIRKHKAAAEKAFQEGIAKAKLVMRRTPIGTDRNHNRYWLFSDEVPGLFIEKGWVHDSIDYRFNHHCKDHTVSGDEDYCPRSKKANLGKNASMNTQHGTATEVAVETTTPKQGQNLWFLCDSQKELDELLNCLHPQGIRESQLKERLEKRYQDIIHSIHLARKPNLGLKSCDGNQELLNFLRSDLIEVATRLQKGGLGYVEETSEFEARVISLEKLKDFGECVIALQASVIKKFLQGFMAPKQKRRKLQSEDSAKTEEVDEEKKMVEEAKVASALEKWKTAIREAQTFSRMHVLLGMLDACIKWDMSAENARCKVCRKKGEDDKLILCDECNKAFHLFCLRPALYEVPDGEWQCPACQPATARRNSRGRNYTEESASEDSEDDESDEEEEEEEEEEEEEDYEVAGLRLRPRKTIRGKHSVIPPAARSGRRPGKKPHSTRRSQPKAPPVDDAEVDELVLQTKRSSRRQSLELQKCEEILHKIVKYRFSWPFREPVTRDEAEDYYDVITHPMDFQTVQNKCSCGSYRSVQEFLTDMKQVFTNAEVYNCRGSHVLSCMVKTEQCLVALLHKHLPGHPYVRRKRKKFPDRLAEDEGDSEPEAVGQSRGRRQKK
B6 was tested, and the “Fold Change” value was 0.6821 and the “Log (Fold Change)” value was -0.1661.

B7: sp¦P13995¦MTDC_HUMAN (protein, UniProt P13995 36-350, looked up)
Bifunctional …: EAVVISGRKLAQQIKQEVRQEVEEWVASGNKRPHLSVILVGENPASHSYVLNKTRAAAVVGINSETIMKPASISEEELLNLINKLNNDDNVDGLLVQLPLPEHIDERRICNAVSPDKDVDGFHVINVGRMCLDQYSMLPATPWGVWEIIKRTGIPTLGKNVVVAGRSKNVGMPIAMLLHTDGAHERPGGDATVTISHRYTPKEQLKKHTILADIVISAAGIPNLITADMIKEGAAVIDVGINRVHDPVTAKPKLVGDVDFEGVRQKAGYITPVPGGVGPMTVAMLMKNTIIAAKKVLRLEEREVLKSKELGVATN
In the case of B7, the “Fold Change” value is reported as 0.682 and the “Log (Fold Change)” value is reported as -0.1662.
